Data: article PMC12809078 (2025)

Target: CtBP2_(31-364)-StrepI (human, UniProt P56545 31-364)
Test: ITC

NKEGDTAWDLTPE [G9a peptide encompassing residues 881 to 893]
Kd: 7.2 µM
